This is an account of results in the Immune Epitope Database (IEDB).

Some targets named below: HLA-B*08:01; HLA-B*07:02; HLA-A*68:02; HLA-A*26:01; HLA-B*40:01; HLA-B*44:02; HLA-A*02:06; HLA-A*02:03; HLA-A*24:02; HLA-A*32:01; HLA-B*15:01; HLA-A*30:02; HLA-A*23:01; HLA-A*68:01; HLA-A*30:01.
Experiment in all cases: IEDB peptide-MHC binding, purified MHC/competitive/radioactivity; filed as Kd, often an IC50 or EC50 that approximates it; ≥ and ≤ were set here for values at or beyond the usual limits of such assays
What all share (conditions): source organism: Lake Victoria marburgvirus - Angola2005

The term Kd denotes the constant that tells how readily two partners part at equilibrium. On to APFARVLNL, for which the figures for the dissociation constant Kd with HLA-B*08:01 and in the assay with HLA-B*07:02 were 67 nM and 0.21 nM, respectively.
In the case of EVASFKQAL, the Kd is 2.7 nM in the assay with HLA-A*68:02, 86 nM with HLA-A*26:01 and 250 nM with HLA-B*07:02.
With GEYAPFARV, the values for the Kd with HLA-B*40:01 and with HLA-B*44:02 were 107 nM and 214 nM, respectively.
On to GLYPQLSAI, for which the dissociation constant (Kd) with HLA-A*02:06 turned out to be 6.9 nM; with HLA-A*02:03, 1.4 nM.
Turning to HYSPLILAL, in the assay with HLA-A*24:02, the Kd was found to be 64 nM.
For KVKNEVASF, the dissociation constant Kd came to 2.9 nM with HLA-A*32:01, 5.6 nM in the assay with HLA-B*15:01 and 158 nM in the assay with HLA-A*30:02.
Turning to LIVKTVLEF, the values for the Kd with HLA-B*15:01 and with HLA-A*23:01 were 0.8 nM and 109 nM, respectively.
For TVLEFILQK, the figures for the Kd with HLA-A*68:01 and with HLA-A*30:01 were 2.2 nM and 365 nM, respectively.
